Experiments:
[1] = biological target: P-Selectin-IgG REKDV mutant (human) (UniProt P16109); assay: capture ELISA
[2] = biological target: P-Selectin-IgG chimera (human) (UniProt P16109); assay: capture ELISA, mAb coated
[3] = biological target: E-Selectin-IgG chimera (wild type) (human) (UniProt P16581); assay: capture ELISA, mAb coated
PE-1 chimera (human) = PE-1 chimera (human) (UniProt P16581); assay: capture ELISA, mAb coated
[4] = biological target: P-Selectin ligand on HL60 cells and human neutrophils (human); assay: flow cytometry, staining of HL60 cells

mAb AK-6 (CLB-thromb/6) (antibody)
percent of control P-Selectin-IgG binding [1]: 70% | O.D. 450 [2]: 1.3 O.D. 450 | O.D. 450 [3]: 0 O.D. 450 | O.D. 450 (PE-1 chimera (human)): 1.7 O.D. 450

P-Selectin-IgG chimera (from UniProt P16109) (Fc fusion)
% cells positive [4]: 97% | MFI [4]: 416 MFI

mAb AC 1.2 (antibody)
percent of control P-Selectin-IgG binding [1]: 70% | O.D. 450 [2]: 2.8 O.D. 450 | O.D. 450 [3]: 0 O.D. 450 | O.D. 450 (PE-1 chimera (human)): 0.1 O.D. 450

— patent US5593882
